Changes are numbered by the printed parent chain.

Holding throughout (experiment): SPR, KD relative to WT C2;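 note: biacore SPR at 37 °C, anti-C2 mAbs captured via immobilised goat anti-human IgG, C2 alanine or serine surface mutants as analytes, 1:1 model fitted, double-referenced sensograms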
One test addresses T1, human C2 A709S (human, UniProt P06681 21-752).
T1 sequence: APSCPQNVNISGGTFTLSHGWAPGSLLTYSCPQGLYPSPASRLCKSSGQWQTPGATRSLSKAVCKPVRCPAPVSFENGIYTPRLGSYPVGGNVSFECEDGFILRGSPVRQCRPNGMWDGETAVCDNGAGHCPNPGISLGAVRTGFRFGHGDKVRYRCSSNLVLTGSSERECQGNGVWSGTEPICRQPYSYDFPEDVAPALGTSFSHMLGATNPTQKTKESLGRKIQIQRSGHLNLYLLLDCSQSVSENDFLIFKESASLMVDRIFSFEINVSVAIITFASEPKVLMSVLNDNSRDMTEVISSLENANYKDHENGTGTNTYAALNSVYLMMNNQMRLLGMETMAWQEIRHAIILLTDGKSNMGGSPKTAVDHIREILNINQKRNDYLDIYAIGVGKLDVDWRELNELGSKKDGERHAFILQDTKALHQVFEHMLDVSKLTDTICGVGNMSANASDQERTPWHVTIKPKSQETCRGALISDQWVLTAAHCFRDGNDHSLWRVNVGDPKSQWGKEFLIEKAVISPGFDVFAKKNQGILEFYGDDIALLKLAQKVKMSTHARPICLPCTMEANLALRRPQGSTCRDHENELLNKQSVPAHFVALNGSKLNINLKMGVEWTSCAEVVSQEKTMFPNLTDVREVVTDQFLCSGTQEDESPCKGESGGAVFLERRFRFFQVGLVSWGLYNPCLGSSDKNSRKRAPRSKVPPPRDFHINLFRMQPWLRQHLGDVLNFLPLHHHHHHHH

A further test has as its target T2, human C2 D710A (human, UniProt P06681 21-752).
T2 sequence: T1 sequence with S689A, D690A

The next test addresses T3, human C2 V418A (human, UniProt P06681 21-752).
T3 sequence: T1 sequence with V398A, S689A

The target in the next test is T4, human C2 K244A (human, UniProt P06681 21-752).
T4 sequence: T1 sequence with K224A, S689A

B1: RF16-226 (antibody, human IgG4 S228P, lambda)
heavy: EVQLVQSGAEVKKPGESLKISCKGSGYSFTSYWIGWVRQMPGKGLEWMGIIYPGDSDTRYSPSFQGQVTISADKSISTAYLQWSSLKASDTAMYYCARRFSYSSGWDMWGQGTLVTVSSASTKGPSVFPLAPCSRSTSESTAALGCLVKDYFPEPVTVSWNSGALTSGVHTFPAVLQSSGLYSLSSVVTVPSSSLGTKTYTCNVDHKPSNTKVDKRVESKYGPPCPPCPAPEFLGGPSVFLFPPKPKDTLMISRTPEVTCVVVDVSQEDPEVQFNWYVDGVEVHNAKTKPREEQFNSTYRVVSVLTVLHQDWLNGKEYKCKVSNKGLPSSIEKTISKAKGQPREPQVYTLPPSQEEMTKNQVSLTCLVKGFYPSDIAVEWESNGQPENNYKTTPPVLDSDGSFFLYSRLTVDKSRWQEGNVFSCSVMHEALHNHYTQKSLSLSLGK
light: SYELTQPPSVSVSPGQTARITCSGDALTSKYVAWYQQKSGLAPLLVIYEDTRRPSGIPAKFSGSSSGSVATLTISGAHGDDEADYYCYSTDASGHQRVFGGGTKLTVLSQPKAAPSVTLFPPSSEELQANKATLVCLISDFYPGAVTVAWKADGSPVKAGVETTKPSKQSNNKYAASSYLSLTPEQWKSHRSYSCQVTHEGSTVEKTVAPTECS
notes: pH-dependent anti-C2 antibody from a phage display library; also called WT
With B1, the Fold diff with human C2 A709S turned out to be 13 fold; with human C2 D710A, 10 fold; in the test with human C2 V418A it was 1 fold; with human C2 K244A it was 2 fold.

These data come from US20220332804A1 (CSL INNOVATION, published 2022).
